This data set in a line: soluble on expression in E. coli; label from the status in PepcDB or PDB records.
In the case of “MIFRQIHEEGLAQMSYLLGCAATGEALVVDPRRDVDVYLELAQSLGLRITAIAETHIHADYLSGARELARATGATLYLSDEGDENWKYKGLEGFPHVLLKDGDEFKVGNIRVRAVHTPGHTPEHLSFLVADGAVTDEPLLFLTGDFVFVGDVGRPDLLEEAAGIKGTAEPGARRMFRSLKEKFLTLPDHVQVWPGHGAGSACGKALGALPATTVGYERRHAWWAEYLERDDEEGFVKALLQGQPEAPTYFKEMKRLNRDGMAILGGLPHPGRLTPAQFERWLREGAILVDTRDKFAFAGGHIPGSINIPAGKNFSTWAGWLLPYDRPLVLLARPEEVEALTRALVRIGLDEVVGYIPGLEGYAQGELETVPQVTAKEAKELWEKGKAFVLDVRGRDEYLAGHIPGAQNIHAGRVLAHLDRLPKDRPLIVHCVGGDRSSTAISALLAHGFRNALNLTGGIKAWREAGFPVVQGEELVQA”, the “soluble on expression in E. coli” value was “soluble”.
Under “MSWFLLNRNLTLLEPYDWKLSRTVLRGERGSNASDLPGKAIAKEGMADYIRYLFKTVRKFYGEAVVVTQEVDDIISSPIVKESIVNNSDCKILLDQRKYLNKFSQIQSLLGLTDKEKAQILSVNMSNDPRRKYKEVWFGLGGVQSTVYATEVSLEEYLCYSTEESEKVELEGLTKELGGNIELAIRRLAEKKRNQNNEIP” stands “not soluble”; under “NIDLDVQNMAQNALKFGYDEIVKRDKDANLSTLNGAMVVVNHQSGDVLALVGGVDYEKSNYNRATQSMRQPGSSFKPFVYQVAINLGYSPMSEIADISRIFEGGAGNNEDWKPKNEGGKFLGLITLKEALTRSRNLATINLALDMGLDVLYSKLMEFGFKDIPPNLSIVLGSFGISPLEYSKFYTMFGNYGTIKDPQIIRQVQDKTGKTIMEFNSNERKVSDEAQSFLVLDMMRNVVEKGTGRNARVKDIEIAGKTGTTNKSVDAWFCGLTPEIEAIIWYGNDNNKPMRYTEGGARTAAPVFREFLTQYIEKFPDTTR”, “not soluble”; under “MGSDKIHHHHHHMKSTGNIIADTICRTAELGLTITGASDAGDYTLIEADALDYTSTCPECSQPGVFRHHTHRMLIDLPIVGFPTKLFIRLPRYRCTNPTCKQKYFQAELSCADHGKKVTHRVTRWILQRLAIDRMSVHATAKALGLGWDLTCQLALDMCRELVYNDPHHLDGVYVIGVDEHKWSHNRAKHGDGFVTVIVDMTGHRYDSRCPARLLDVVPGRSADALRSWLGSRGEQFRNQIRIVSMDGFQGYATASKELIPSARRVMDPFHVVRLAGDKLTACRQRLQREKYQRRGLSQDPLYKNRKTLLTTHKWLSPRQQESLEQLWAYDKDYGALKLAWLAYQAIIDCYQMGNKREAKKKMRTIIDQLRVLKGPNKELAQLGRSLFKRLGDVLAYFDVGVSNGPVEAINGRLEHLRGIALGFRNLNHYILRCLIHSGQLVHKINAL”, “not soluble”.
As for “SLVKSTSCTTIDFMNMSQLTERTFTSSESLSSLSLFLSLARGQCRPGKFWHRRSFRQKFLLRSLIMPRLSVEWMNELSHWPNLNVLLTRQPRLPVRLHRPYLAANLSRKQLLEALRYHYALLRGCMSAEEFSLYLNTPGLQLAKLEGKNGEQFTLELTMMISMDKEGDSTILFRNSEGIPLAEITFTLCEYQGKRTMFIGGLQGAKWEIPHQEIQNATKACHGLFPKRLVMEAACLFAQRLQVEQIIAVSNETHIYRSLRYRDKEGKIHADYNAFWESVGGVCDAERHYRLPAQIARKEIAEIASKKRAEYRRRYEMLDAIQPQMATMFRG”, the “soluble on expression in E. coli” value is on record as “not soluble”.
On to “KRTMSISWPLAFSGAFQGSLTGMDNLRFICRIYNVDIDYVKAFTEEFSELGQYLYEPVKRYSSGMKARLAFALSLAVEFDCYLIDEVIAVGDSRFADKCKYELFEKRKDRSIILVSHSHSAMKQYCDNAMVLEKGHMYQFEDMDKAYEYYNSLP”, for which the “soluble on expression in E. coli” value is “not soluble”.
For the sequence “MGSDKIHHHHHHMIYCDHCVMPNTRPGINFTKDKEGKNICSACINHKNKENIDYKARFKELEVLCDKYRRMNGKFEYDCAIAVSGGKDSHFQVHIMKEKLGMNPILFSVEDNFTMTEAGKKNLKNLSETFGCHIISLKPDIKTQKKVMLKTFEKYGKPTWFIDRLIYSYPFAMALKFNTPLLVYGENVSYEYGGSDTEETPSAKEIFLNGVASDLNINEFIDDEIKEENLQLFFNPNKDKLDKLNPIYLSYFVKWNSYSNYIFAKSRGFTDLEGEWDRTMCAENFDQVDSIGYILHAWMKYPKFGHACASDYAARFVRYGLLSRKEAIELVQKRDHKLDNKCVEDFCNFIGISKTTFWKIVEKHYNMDLFYKNDFGEFKLKNKLQ”, the “soluble on expression in E. coli” value was “not soluble”.
Then “MAHHHHHHMSISGAAAPAPLRGRESGGNVPGSMGALIKKLHPLYTQRVRPLEEMYSFDVFRPSWYEETILNERPFITLFGPWSAGKTTFINYLLQSNDLWTGPQPTTAEFTVVMYGKEPGPVAGQALANSKHLPFKGLLDFGESFIRNLKGFQAPHALLERVTLIDTPGVLESAKDIHQRKYDYVNVCRWFAERSDLIFVFFDPSKLDAGGELRQLFQTSFKGFENRLRLVLNKADTISTQELMRVYGSLFWNLSNFINTTEPPRVYVGSFWDKPYSPNSFSRLFAEEKLDLLHELLEVIPQQARDKKVASLIRRAKEVLVHAVILGGIRADLPLLFGKSKAKKKAAEQLPRRYELIGARYKMNHRDFPPVQAYRSFLERFDVAKFPPLQKAEKAGLIRGIQELIDTILPSMLRPVCNTRAANPFEEDKQTGLLSMYRDHVLLQRDGRPGMQGGTDKVASTMGQGVPDSATTGPSSSVAAAPASGPSSLLGPGPAVTALSASPPFIELPSRAMAASSTAVAASSPPPPPPSSAAATSSPADMQAMMAIMQQMVAYQQQQQQQQDRQSSSAPATVNSHGTLSSSSSETSGCLAESSVPVTPQESNLNSEPQPPTVVPQLGLPNSCATQISAWAGGDESKSQH”, with “soluble”.
Under “MNTLSDSASPLYEKVKDFVLGNIGSGKWARNSRLPSENELVSALGVSRMTVHRALRELTSEGHLRRIQGVGTFVAPPRPRSTLIEISNIITEIKTRGSRHRAEVVVLERIARPEPELLLAFEFETVKPVDHSVVIHFENDLPVQLEERYVNPNLVSGYIDQDFAAVATYDYLQNATPLTEVEHLISALPANAEQARLLNVRPGDCCLILHRKTWTGPVVATVNTFTYVGSRYSLGSRYLHGGK” stands “not soluble”; under “MGHHHHHHSHHPFVRSAKGVSILRDLINEAMDVKLKRQESQQREVDQDDEENSEEDEMDSGTMVRAVGDEMGTVRVASTMTDGANTMIEHDDTLPSQLGTMVINAEDEEEEGTMKRRDETMQPAKPSFLEYFEQKEKENQINSFGKSVPGPLKNSSDWKIPQDGDYEFLKSWTVEDLQKRLLALDPMMEQEIEEIRQKYQSKRQPILDAIEAKKRRQQNF”, “soluble”.
Under “DIQMTQSPSSLSASVGDRVTITCRASQDIPRSISGYVAWYQQKPGKAPKLLIYWGSYLYSGVPSRFSGSGSGTDFTLTISSLQPEDFATYYCQQHYTTPPTFGQGTKVEIKRTVAAPSVFIFPPSDEQLKSGTASVVCLLNNFYPREAKVQWKVDNALQSGNSQESVTEQDSKDSTYSLSSTLTLSKADYEKHKVYACEVTHQGLSSPVTKSFNRGEC” stands “soluble”.
For “MPKKVVPEEARRRRRPTRQGAVLSEGLIVRTALRMLREHGTGGLTARRLGAALGADPSTLYRYFAGMDDLARAVGNELMGQALDGWTAQGDWRADLRSLGLALHSSYLAHPQAAVLTASRVSGRPREIAVDEAILGLLRGAGLTDRAAVRFYHAFIDLALAFAALDAGSLALPEEARRSDEDMWGTTYARLPAETHPNIAATAERLAARMPHSAYPVVLDTLLDGIAAELTGTAPEM”, the “soluble on expression in E. coli” value is “not soluble”.
Under “MGKGVAFFSGGKDGLYALYLAEEMGIEVPYLLVLKTSIGLSPHWENLDALKTLAKVMEREILTFDMRRGSKALAEFISSLDVDYLIAGDVYLEDHILWVKSLAEEANVKPLEPLWGRNTRKLAEEMLREGFNWAIIAVDKRKLGKEWLGYTFRSIEDLENFLRANPNVDPLGEVGEFHTVVLNSPLFALNFELKVESIEEDERYWWLRFELREVEKWNLNS” stands “soluble”; under “MVMTVRVIAPDKTVWDAPAEEVILPSTTGQLGILSNHAPLLTALETGVMRVRQDREWVAIALMGGFAEVENNEVTILVNGAERGDTIDLEKAKAEFAAAQAALAQAEQGESKQAKIQATQAFRRARARLQAAGGVVEI”, “soluble”; under “MAHHHHHHMFRDGYSLDSVCHRLRYEIGVPHDGVYLHEPPGGSFAAVTQFGVAVGVTREQLPHASRHYNVHALIFDDRGYHALDELPRLSVAPQAYLHRILLRCVSGDEAAVAQRLRHLSSNGFINYFGLESFGIGSNTLFDMAAFAFRREPHRSVGAYLQTLAECSPLHHQPYLSYANAEESTVAGAVAEWLRVCERAKLPRETRELLRKLHCYHLSQCHPSDATTISMEDVWKACPIMHRAEQSAAAFVWNAMASQRLLSFGSRPVKGDLVCRIGNRGAIEIAEVASDTDASHYTIDDVVLPIPCGGTPAAELRYPTHSVNEAFFTQFAKKHSLSFLFNSGVDPTPRAAATLGPYRRLVSRPRNLQAAVLQDPSSCAALKSDLFLLQEHQPTEGWSLDYRQRVREPSNFNVSERFRERMSCIRKRRAGEHSVALAFVLPAGSSPWVALREAFHMHYGTFHDFYGVS”, “not soluble”.
Then “MGSSHHHHHHSSGLVPRGSHMKAIALISGGKDSFLSAYIAMQQGFDIVRAMIVRPQEYSYMFHFPNVDKAGYVAGMLGIEPEFVLEDGFQQRVKEYASDGVKAIVSGAIASEFQKTRLERIATEFSIISYTPLWKVDQHRVMRDILDAGIRAMIVSVSAEGFSENDLGREIDDKYLERLYHLEKRYGINITGEGGEYETFVFGFGNKYISVKGHRIWKGSGGYFNIDSVEERPDSC”, with “soluble”.
Under “MSLKAVFVYEPLGNENVKVEEVSEPKKEQGKVIIEVKKAGLNPIDYNVINGKIVYRLNPLPHIPGSEVYGIVKEDSGSFKKGERVIVYNRIFDGTCSQCISGNEHLCENGGIWGVVSNGGYSQLVQIDEKNVFRVPEDASDELAASIGVAALTSFRAIRISGCSPGRSILIYGASGNTGMFAVQLASMMGCDVYAVSRKDWIESFGAIEVFRPDNIPPDMKFDIIINPLGSLFWGDALKHLRTRGILVSFGVLTGREGSIDIADLYTGEKKILGSTGGTREDLRGLLEFMKTHELRVKIAREFKINEIKDALKYYSETHDGRILISMREGHHHHHH” stands “not soluble”.
In the case of “MDASLTGAVAELGTSKAAARIRAAAIEVFAAKGYGATTTREIAASLDMSPGAVYPHYKTKESLLYAISLEGHHSVLAAITAADFPDIAAPDRLMSTVTAYVTWHADNRASARVGQYELRSLSPEHFAIIADIRRSTTKVFTRIIEAGATAGDFHPFDIEAAALAITSLGIDVSRWFPSHTYSDPRIIAARYVELALRMVGCADRQPLDKPS”, the “soluble on expression in E. coli” value is on record as “soluble”.
Then “MGSDKIHHHHHHDDPFYAPVYPEAPPTKIAATGSIYQDSQAASLYSDIRAHKVGDIITIVLKEATQAKKSAGNQIKKGSDMTLDPVYAGGSNLSLGGIPLDLRYKDSMNTKRESDADQSNSLDGSISANIMQVLNNGNLVVRGEKWISINNGDEFIRVTGIVRSQDIKPDNTIDSTRMANARIQYSGTGTFAEAQKVGWLSQFFMSDWWPF”, with “not soluble”.
Under “MKHSNKPYDSFQDELEDYIKVQKARGLEPKTCFRRMRGEYLESCGYREEFDSRPRYRMFDQRLPSGTNHSYPRSCSSSQTEDRVPQWLPAHDKIRLNSLSYCQFTRDGFSEKPVPLNLSQQEYNCGSYSVESVVHKRLCSEHSTIDPQVSHRQMHQKRKKHVEEGREKQEERPKHERKRSSEEMDLNKHRSIQRKKTKAETETVQDGTEKLKNRKEKKTRDVSSKKEDRKRRKEKKEQGEERTEEEMLWDQSILGF” stands “not soluble”.

(Values after the DeepSol protein solubility set.)
